B1: TPR t1 (parent)
chain: GACCAAUCUGCCCUCAGAGCUCGAGAACAUCUUCGGAUGCAGAGGAGGCAGGCUUCGGUGGCGCGAUAGCGCCAACGUCCUCAACCUCCAAUGCAUCCCACCACAUGAUGAUGCCUGAAGAGCCUUGGUUUUUUG

Variants of: B1
Assay: polymerase ribozyme fitness, log enrichment relative to wild type (log ratio); higher = more active; in vitro selection for triplet polymerase activity
In short: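 Each subunit of a heterodimeric triplet polymerase ribozyme was represented by a PCR-built, transcribed mutant library that underwent triplicate single-round in vitro selection with frozen incubation at −7 °C. Extended constructs were recovered by gel excision, streptavidin-bead capture and RT-PCR, and Illumina sequencing of input and output libraries kept genotypes with ≥10 input reads and ≥1 read per output. Fitness is the logarithm of genotype enrichment relative to wild-type enrichment, from inverse-variance-weighted replicate averages, with a logarithm base of 2.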

Point of comparison: GGCCAAUCUGCCCUCAGAGCUCGAGAACAUCUUCGGAUGCAGAGGAGGCAGGCUUCGGUGGCGCGAUAGCGCCAACGUCCUCAACCUUCAAUGCAUCCCACCACAUGAUGAUGCCUGAAGAGCCUUGGUUUUUUG [A2G C88U], “polymerase ribozyme fitness (log ratio)” value -0.191. Against it:
- GGCCAAUCUGCCCUCAGAGCUGGAGGACAUCUUCGGAUGCAGAGGAGGCAGGCUUCGGUGGCGCGAUAGCGCCAACGUCCUCAUCCUCCAAUGCAUCCCACCACAUGAUGAUGCCUGAAGAACCUUGGUCUUUUG [A2G C22G A26G A84U G122A U130C] — lower, -5.4
- GGCCAAUCUGCCCUUAGAGCUCGAGAACAUCUUCGGAUGCAGUGUAGGCAGGCUUUGGUGGUGCGAUAGCGCCAACGUCCUCAACCUCCAAUGCAUCCCACCACAUGAUGAUGCCUGAAGAGCCUUGGUUUUUUG [A2G C15U A43U G45U C56U C62U] — lower, -6.15
- GGCCAAUCUGCCCUCAGAGCUCGAGAACAUCUUCGGAUGCAGAGGAGGCAGGCUUCGGUGGCGCGAUAGCGUCUACGUCCUCAACCUCCAAUGCAUCCCACUACAUGAUGAUGCCUGAAGAGCCUUGGUAUUUUG [A2G C72U A74U C102U U130A] — lower, -3.21
- GGCCAAUCUGCCCUCAGAGCUCGAGAACAUCUUCGGAUGCAGAGGAGGCAGGCUUCGGUGGCGCGAUAGCGCAAACGUCCUCAACCUCCGAUGCAUCCCACCACGUGAUGAUGCCUGAAGAGCCUUGGUUUUUUG [A2G C73A A90G A105G] — lower, -2.1
- GGCCAAUCUGCCCUCAGAGCUCGAGAACAUCUUCGGAUGCAGAGGAGGCAGGCUUCGGUGGCGCGAUAGAGCCAACGUCCUCAACCUCCAAUGCAUCCCACCACAUGAUGAUGCCUGAAGAGCCUUGGUUUUUUG [A2G C70A] — lower, -1.82
- GGCCAAUCUGCCCUCAGAGCUCGAGAACAUCUUCGGAUGCAGAGGAGGCAGGCUUCGGUGGCGCGAUAGUGCCAACGUCCUCAACCUCCAAUGCAUCCCACCACAUGAUGAUGCCUGAAGAGCCUUGGUUUUUUG [A2G C70U] — lower, -0.43
- GGCCAAUCUGCCCUCAGAGCUCGAGAACAUCUUCGGAUGCAGAGGAGGCAGGCUUCGGUGGAGCGAUAGCGCCAACGUCCUCAACCUCCAAUGCAUCCCACCACAUGAUGAUGCCUGAAGAGCCUUGGUUUUUUG [A2G C62A] — within 0.2 log units, -0.128
- GGCCAAUCUGCCCUCAGAGCUCGAGAACAUCUUAGGAUGCAGAGGGGGCAGGCUUCGGUGGCGCGAUAGCGCAAACGUCCUCAACCUCCAAUGCAUCCCACCACAUGAUGAUGCCUGAAGAGCCUUGGUUUUUUG [A2G C34A A46G C73A] — lower, -2.49
- GGCCAAUCUGCCCUGAGAGCUCGAGAACAUCUUCGGAUGCAGAGGAGGCAGGCUUCGGUGGCGCGAUAGCGCCAACGUCCUCAACCUCCAAUGCAUCCCACCACAUGAUGAUGCCUGAAGAGCCUUGGUUUUUUG [A2G C15G] — lower, -3.2
- GGCCAAUCUGCCCUCAGAGCUCGAGAACAUCUUCGGAUGCAGAGGAGGCAGGAUUCGGUAGCGCGAUAGCGCCAACGUCCUCAACCUCCAAUGCAUCCCACCACCUGAUGAUGCCUGAAGAGCCUUGGUUUUUUG [A2G C53A G60A A105C] — lower, -4.11
- GGCCAAUCUGCCCUCAGAGCUCGAGAACAUCUUCGGAUGCAGAGGAGGCAGGCUUGGGUGGCGCGAUAGGGCCAACGUCCUCAACCUCCAAUGCAUCCCACCACAUGAUGAAGCCUGAAGAGCCUUGGUUUUUUG [A2G C56G C70G U112A] — lower, -3.63
- GGCCAAUCUGCCCUCAGAGCUCGAGAACAUCUUCGGAUGCAGAGGAGGCAGGCUUCGGUGGCGCGAUAGCGUCAACGUCCUCAACCUCCAAUGCAUCCCACCACAUGAUGAUGCCUGAAGAGCCUUGGUUUUUUG [A2G C72U] — higher, 0.0702
- GGCCAAUCUGCCCUCAGAGCUCGAGAACAUCUUCGGAUGCAGAGGAGGCAGGCUUCGGUGGCGCGAUAGCGCCAACGUCCUCAACCUCCAAUGCAUCCCACCACAUGAUGAUGUCUGAAUAGCCUUGGUUUUUUG [A2G C114U G120U] — lower, -3.07
- GGCCAAUCUGCCCUCAGAGCUCGAGAACAUCUUCGGAUGGAGAGUAGGCAGACUUCGGUGGCGCGAUAGCGCCAACGUCCUCAACCUCCAAUGCAUCCCACCACAUGAUGAUGCCUGAAGAGCGUUGGUUUUUUG [A2G C40G G45U G52A C124G] — lower, -2.61
- GGCCAAUCUGCCCUCAGAGUUCGAGAACAUCUUCGGAUGCAGAGGAGGCAGGCUUCGGUCGCGCGAUAGCGCCAACGUCCUCAACCUCCAAUGCAUCCCACCACAUGAUGAUGCCUGAAGAGCCUUGGUUUUUUG [A2G C20U G60C] — lower, -1.66
- GGCCAAUCUGCCCUCAGAGCUCGAGAACAUCUUCGGAUGCAGAGGAGGCAGGCUUCGGUGGCGCGAUAGCGCUAACGUCCUCAACCUCCAAUGCAUCCCACCACAUGAUGAUAGCUGAUGAGCCUGGGUUUUUUG [A2G C73U G113A C114G A119U U126G] — lower, -5.02
- GGCCAAUCUGCCCUCAGAGCUCGAGAACAUCUUCGGAUGCAGAGGAGGCAGGCUUCGGUGGCGCGAUAGCGCCAACGUCCUCAACCUCAAAUGCAUCCCACCACAUGAUGAUGCCUGAAGAGCCUUGGUUUUUUG [A2G C89A] — lower, -2.01
- GGCCAAUCUGCCCUCAGAGCUCGAGAACAUCUUCGGAUGCAGAGGAGGCAGGCUUCGGUGGCGCGAUAGCGCCAACGUCCUCAAUCUCCAAUGCGUCCCACCACAUGAUGAUGCCUGAAGAGCCUUGGUUUUUUG [A2G C85U A95G] — lower, -2.08
- GGCCAAUCUGCCCUCAAAGCUCGAGAACAUCUUCGGAUGCAGAGGAGGCAGGCUUCGGUGGCGCGAUAGCGCCAACGUCCUCAACCUCCAAUGCAUCCCACCACAUGAUGAUGCCUGAAGAGCCUUGGUUUUUUG [A2G G17A] — lower, -2.9
- GGCCAAUCUGCCCUCACAGCUCGAGAACAUCUUCGGAUGCAGAGGAGGCAGGCUUUGGUGGCGCGAUAGCGCCAACGUCCUCAACCUCCAAUGCAUCCCACCACAUGAUGAUGCCUGAAGAGCCUUGGUUUUUUG [A2G G17C C56U] — lower, -4.71
